Data: paper PMC6994035

Legend:
Assay in all cases: EMSA
mcherry-Tet1CD = mcherry-Tet1CD (UniProt Q3URK3 1367-2039)
MBD-YFP (MBD of Mecp2) = MBD-YFP (MBD of Mecp2) (UniProt Q9Z2D6 77-167)
Mbd4-Strep = Mbd4-Strep (UniProt Q9Z2D7 1-554)

Measured: binding result

Sequence of Mbd4-Strep (Q9Z2D7 whole entry): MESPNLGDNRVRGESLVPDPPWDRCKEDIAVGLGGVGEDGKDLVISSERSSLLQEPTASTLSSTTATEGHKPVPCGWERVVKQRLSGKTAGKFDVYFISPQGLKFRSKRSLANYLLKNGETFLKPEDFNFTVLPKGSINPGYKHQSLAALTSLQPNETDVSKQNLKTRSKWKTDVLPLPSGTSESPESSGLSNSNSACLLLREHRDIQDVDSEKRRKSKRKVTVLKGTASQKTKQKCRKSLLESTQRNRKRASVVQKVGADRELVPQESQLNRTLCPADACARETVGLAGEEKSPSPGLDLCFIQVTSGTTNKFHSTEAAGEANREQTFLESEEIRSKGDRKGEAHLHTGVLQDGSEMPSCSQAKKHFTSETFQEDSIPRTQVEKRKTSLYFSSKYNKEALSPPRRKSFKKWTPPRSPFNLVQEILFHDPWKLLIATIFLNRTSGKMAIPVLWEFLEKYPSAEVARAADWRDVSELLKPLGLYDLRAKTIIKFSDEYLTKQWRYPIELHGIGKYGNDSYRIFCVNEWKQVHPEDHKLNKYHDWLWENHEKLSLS
Sequence of mcherry-Tet1CD (Q3URK3 1367-2039): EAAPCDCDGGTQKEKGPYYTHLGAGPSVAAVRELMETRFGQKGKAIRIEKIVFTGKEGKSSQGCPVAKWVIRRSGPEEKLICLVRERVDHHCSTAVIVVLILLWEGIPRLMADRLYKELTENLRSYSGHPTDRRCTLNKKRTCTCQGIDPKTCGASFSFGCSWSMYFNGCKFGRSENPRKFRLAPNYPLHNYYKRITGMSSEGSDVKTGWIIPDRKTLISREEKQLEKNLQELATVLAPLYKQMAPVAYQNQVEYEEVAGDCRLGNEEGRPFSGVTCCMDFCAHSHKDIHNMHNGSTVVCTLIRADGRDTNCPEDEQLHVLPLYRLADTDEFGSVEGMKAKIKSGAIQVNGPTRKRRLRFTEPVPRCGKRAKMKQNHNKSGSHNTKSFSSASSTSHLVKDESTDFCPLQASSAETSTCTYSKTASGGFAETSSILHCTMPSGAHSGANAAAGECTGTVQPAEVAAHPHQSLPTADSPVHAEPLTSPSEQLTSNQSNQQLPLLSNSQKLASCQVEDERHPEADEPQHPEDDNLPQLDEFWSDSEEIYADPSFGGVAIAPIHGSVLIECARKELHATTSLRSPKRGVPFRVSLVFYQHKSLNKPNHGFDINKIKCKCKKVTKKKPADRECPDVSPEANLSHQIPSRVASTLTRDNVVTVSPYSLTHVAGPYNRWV
Sequence of MBD-YFP (MBD of Mecp2) (Q9Z2D6 77-167): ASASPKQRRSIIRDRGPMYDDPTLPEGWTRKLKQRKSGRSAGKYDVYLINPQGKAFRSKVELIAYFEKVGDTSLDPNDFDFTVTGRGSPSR

B1: mC:mC fully methylated CpG 42-mer (dsDNA)
DNA 1: CTCAACAACTAACTACCATCCGGACCAGAAGAGTCATCATGG
DNA 2: CCATGATGACTCTTCTGGTCCGGATGGTAGTTAGTTGTTGAG
modifications: 5mC at position 21 of both strands
binds: all assays above
